The values below come from patent US8580254B2, “Anti-IGF antibodies” (Boehringer Ingelheim International GmbH, priority 2007, dated 2013).

The IC50 is the concentration at which inhibition is half-maximal.

For data set [1] the following is noted: cynomolgus monkeys; cited from earlier work.
The conditions of data set [2]: humans; cited from earlier work.
Data set [3] deals with COLO 205 tumour cells xenografted into nude mice. The data set can be described thus: In vivo COLO 205 xenograft study. The arrangement: species or system athymic NMRI nude mice. The conditions noted are these: 50 mg/kg 5FU alone, once weekly, FIG. 7. On the procedure:
Female athymic NMRI nude mice, 6-8 weeks old, are inoculated subcutaneously in the right flank with the COLO 205 human colon tumour-derived cell line (ATCC #CCL-222) (5×10^6 in 100 μl Ringer solution). Tumour cell growth is assessed by measuring tumour volume three times per week using calipers and the formula: π/6× larger diameter×(smaller diameter)^2. Treatment is administered intravenously to groups of ten mice and commenced when tumours have developed to a size of between 130 to 270 mm^3. The treatment schedule consists of two times weekly intravenous infusions of vehicle and antibody 40186 at a dose of 25 mg/kg for two treatment cycles. In combinations of antibody with 5FU, a dose of 50 mg/kg 5FU is administered weekly. The study is terminated when tumours reached an average size of 1500 mm^3. All animal experiments are performed according to the legal requirements in Austria as well as guidelines of the American Association for Laboratory Animal Science (AALAS).

The next data set deals with T1, human IGF-1 (Homo sapiens, UniProt P05019).
T1 construct: Insulin-like growth factor-1 (IGF-1; a 70 amino-acid polypeptide)
The data set can be described thus: ELISA binding titration of IgG1 antibodies. The conditions noted are these: FIG. 1A. On the procedure: (§1) ELISA screening for IGF-1 positive Fab clones is performed by coating Maxisorb 384-well plates overnight at 4° C. with 5 μg/ml recombinant human IGF-1 (Gropep) in 1× coating buffer (Gibco). Wells are washed with 1×TBS-T and blocked with 1× Blocking Buffer (Gibco) for 1 h at room temperature. Bacterial lysates containing antibody Fab fragments are added for 1.5 hr at room temperature, then washed five times with 1×TBS-T and detected with Alkaline Phosphatase-conjugated Affini Pure Goat Anti-HumanIgG F(ab′)2. Fragment Specific Mab (Dianova) at a dilution of 1:10 000 and visualized with Attophos Substrate (Roche). Fluorescence readings are performed on Tecan fluorescence reader at excitation 430 nm and emission 535 nm.
(§2) Cross-reactivity to recombinant human IGF-1, murine IGF-1, murine IGF-2 (R&D Systems), recombinant human IGF-2, rat IGF-1, rat IGF-2 (Gropep) and recombinant human insulin (Roche) is performed by ELISA using the same procedure as above, but with a 1 μg/ml coating dilution.
(In general: ELISA stands for enzyme-linked immunosorbent assay.)

For the next data set, the target named is T2, human IGF-2 (Homo sapiens, UniProt P01344).
T2 construct: insulin-like growth factor-2 (IGF-2; a 67 amino-acid polypeptide)
Nature of the data set: ELISA binding titration of IgG1 antibodies. As to conditions: FIG. 1B. On the procedure:
as §1, §2

The next data set has as its target T3, murine IGF-1 (Mus musculus, UniProt P05017).
T3 construct: Insulin-like growth factor-1 (IGF-1; a 70 amino-acid polypeptide); purchased R&D Systems
The data set can be described thus: ELISA binding titration of IgG1 antibodies. As to conditions: FIG. 1C. On the procedure: as §1, §2

Another data set deals with T4, murine IGF-2 (Mus musculus, UniProt P09535).
T4 construct: insulin-like growth factor-2 (IGF-2; a 67 amino-acid polypeptide); purchased R&D Systems
The data set can be described thus: ELISA binding titration of IgG1 antibodies. As to conditions: FIG. 1D. The protocol: as §1, §2

Another data set addresses T5, rat IGF-1 (Rattus norvegicus, UniProt P08025).
T5 construct: Insulin-like growth factor-1 (IGF-1; a 70 amino-acid polypeptide)
Nature of the data set: ELISA binding titration of IgG1 antibodies. The conditions noted are these: FIG. 1E. On the procedure: as §1, §2

In the next data set the target is T6, rat IGF-2 (Rattus norvegicus, UniProt P01346).
T6 construct: insulin-like growth factor-2 (IGF-2; a 67 amino-acid polypeptide)
Nature of the data set: ELISA binding titration of IgG1 antibodies. The conditions noted are these: FIG. 1F. On the procedure: as §1, §2

The target of data set [4] is T7, biotinylated-IGF-1 binding to coated insulin-like growth factor-1 receptor (Homo sapiens, UniProt P05019).
T7 construct: Insulin-like growth factor-1 (IGF-1; a 70 amino-acid polypeptide); purchased R&D Systems (IGF-1R)
Nature of the data set: ELISA neutralization of biotinylated IGF-1 binding to coated IGF-1R. On the procedure:
To identify IGF antibodies that neutralize the ability of IGF-1 and IGF-2 to bind to the IGF-1R, an ELISA is established by coating plates with 1.5 μg/ml recombinant human IGF-1R (R&D Systems) which allows the binding of biotinylated IGF-1 and biotinylated IGF-2. Bound IGF-1 or IGF-2 is detected using alkaline phosphatase-conjugated streptavidin (1:10,000 dilution) (Roche). The neutralization potency of antibody Fab fragments is measured by adding 0.1-1 μg/ml of Fab to the wells coated with IGF-1R just prior to the addition of biotinylated IGF-1 or IGF-2 ligands. Antibody Fab fragments that block the binding of biotinylated ligand are identified by a reduction in fluorometric signal.

The subject of data set [5] is IGF-1 stimulated COLO 205 cell growth. The data set can be described thus: COLO 205 cell growth assay (CellTiter-Glo). It counts as cell-based, human. The conditions noted are these: 10 ng/ml IGF-1; antibody 5 and 30 μg/ml; 5 days; FIG. 3A. The protocol:
(§3) The COLO 205 colon cancer-derived cell line (ATCC # CCL-222) is plated in 96-well plates at a cell density of 1000 cells per well in serum-free RPMI medium. 10 ng/ml of either IGF-1 or IGF-2 is added in the presence or absence of a control antibody or antibodies 40183 and 40186 at concentrations of 5 and 30 μg/ml. Cells are cultured for 5 days then the cell number in each well determined using the CellTiter-Glo luminescent cell viability assay (Promega). Luminescence was recorded using a XFluor GENios Pro 4.
(Cellular ATP, detected with luciferase, serves as a proxy for viable cell number.)

For data set [6], the system named is IGF-2 stimulated COLO 205 cell growth. Nature of the data set: COLO 205 cell growth assay (CellTiter-Glo). It counts as cell-based, human. The conditions noted are these: 10 ng/ml IGF-2; antibody 5 and 30 μg/ml; 5 days; FIG. 3B. The protocol:
as §3

Data set [7] deals with insulin stimulated COLO 205 cell growth. The data set can be described thus: COLO 205 cell growth assay (CellTiter-Glo). It counts as cell-based, human. As to conditions: FIG. 3C.

T5 sequence (P08025 49-118 limits assumed): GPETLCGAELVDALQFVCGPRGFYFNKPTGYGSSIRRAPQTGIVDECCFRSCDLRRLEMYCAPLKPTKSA
T6 sequence (P01346 25-91 limits assumed): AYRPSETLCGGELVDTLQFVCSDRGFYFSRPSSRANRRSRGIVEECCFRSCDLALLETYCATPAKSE

Regarding bevacizumab, the terminal half-life in data set [1] is 206 ± 9.12 h. Also, the terminal half life entry in [2] is reported as “approximately 20 days”.
For `O=c1[nH]cc(F)c(=O)[nH]1` [5FU, 5-fluorouracil, reference compound], the “decrease in median tumour growth” value in data set [3] is reported as 30%.

B1: antibody 40183: fully human IgG1/Igλ anti-IGF antibody; variable heavy SEQ ID NO:18, variable light SEQ ID NO:20; constant regions as 40186 (antibody, listed as Homo sapiens, V domains shown)
VH: QVELVESGGGLVQPGGSLRLSCAASGFTWSSFAMSWVRQAPGKGLEWVSYISYLGSYTGYADSVKGRFTISRDNSKNTLYLQMNSLRAEDTAVYYCARGTKFDYWGQGTLVTVSS
VL: DIVLTQPPSVSGAPGQRVTISCTGSSSNIGTYDVHWYQQLPGTAPKLLIYSNSKRPSGVPDRFSGSKSGTSASLAITGLQSEDEADYYCSITRVFGGGTKLTVLG
modifications: IgG1/lambda constant regions
notes: fully human IgG1/Igλ anti-IGF antibody; constant regions as 40186
Regarding B1, the “binding to human IGF-1 (ELISA)” value with human IGF-1 is listed as “concentration dependent binding”. Also, in the data set with human IGF-2, the “binding to human IGF-2 (ELISA)” value was “concentration dependent binding”. For the same molecule, in the data set with murine IGF-1, the “binding to murine IGF-1 (ELISA)” value is given as “concentration dependent binding”. The “binding to murine IGF-2 (ELISA)” value in the data set with murine IGF-2 is “concentration dependent binding”. In the data set with rat IGF-1, the “binding to rat IGF-1 (ELISA)” value is recorded as “concentration dependent binding”. Further, in the data set with rat IGF-2, the “binding to rat IGF-2 (ELISA)” value was “concentration dependent binding”. Further, in data set [4] (FIG. 2), the “IC50, inhibition of IGF-1 ligand binding to IGF-1R” value is on record as “approximately 5 ng/ml”. Further, the IC50 in data set [4] (FIG. 2, read-out: IC50, inhibition of IGF-1 ligand binding to IGF-1R) is around 30 pM. Further, the “effect on IGF-1 induced COLO 205 cell growth” value in data set [5] is recorded as “dose dependent inhibition”. Moreover, in [6], the “effect on IGF-2 induced COLO 205 cell growth” value is on record as “dose dependent inhibition”. Further, in data set [7], the “effect on insulin induced COLO 205 cell growth” value is on record as “no effect”.
